For this series, the target named is bovine serum albumin, P02769.
Chain of bovine serum albumin, P02769 (P02769 25-607): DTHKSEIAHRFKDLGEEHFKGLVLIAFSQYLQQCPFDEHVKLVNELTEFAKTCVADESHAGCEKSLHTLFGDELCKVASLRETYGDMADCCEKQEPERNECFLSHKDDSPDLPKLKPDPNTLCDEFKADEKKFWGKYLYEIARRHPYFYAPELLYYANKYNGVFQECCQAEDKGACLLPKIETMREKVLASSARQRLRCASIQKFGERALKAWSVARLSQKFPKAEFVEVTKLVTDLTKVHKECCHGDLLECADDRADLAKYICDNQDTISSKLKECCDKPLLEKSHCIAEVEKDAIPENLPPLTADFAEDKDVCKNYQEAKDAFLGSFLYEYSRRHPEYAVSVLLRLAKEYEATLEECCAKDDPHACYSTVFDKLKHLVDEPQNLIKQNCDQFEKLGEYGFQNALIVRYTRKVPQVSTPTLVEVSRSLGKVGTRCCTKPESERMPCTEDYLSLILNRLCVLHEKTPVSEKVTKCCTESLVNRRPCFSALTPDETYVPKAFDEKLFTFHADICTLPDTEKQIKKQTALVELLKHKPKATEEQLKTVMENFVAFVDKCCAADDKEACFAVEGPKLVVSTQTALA

B1: MPO purified from human PMNs (protein)
chain 1: not shown
chain 2: VNCETSCVQQPPCFPLKIPPNDPRIKNQADCIPFFRSCPACPGSNITIRNQINALTSFVDASMVYGSEEPLARNLRNMSNQLGLLAVNQRFQDNGRALLPFDNLHDDPCLLTNRSARIPCFLAGDTRSSEMPELTSMHTLLLREHNRLATELKSLNPRWDGERLYQEARKIVGAMVQIITYRDYLPLVLGPTAMRKYLPTYRSYNDSVDPRIANVFTNAFRYGHTLIQPFMFRLDNRYQPMEPNPRVPLSRVFFASWRVVLEGGIDPILRGLMATPAKLNRQNQIAVDEIRERLFEQVMRIGLDLPALNMQRSRDHGLPGYNAWRRFCGLPQPETVGQLGTVLRNLKLARKLMEQYGTPNNIDIWMGGVSEPLKRKGRVGPLLACIIGTQFRKLRDGDRFWWENEGVFSMQQRQALAQISLPRIICDNTGITTVSKNNIFMSNSYPRDFVNCSTLPALNLASWREAS
As to B1, the “endocytosis of MPO in BLMVEC (confocal microscopy)” value is reported as “in the presence of albumin, MPO staining was markedly co-localized with albumin-containing vesicles” and the “transendothelial 125I-MPO permeability (BLMVEC on Transwell filters)” value is listed as “increased more than 2-fold in the presence of albumin, as compared to γ-globulin”.
